One block for each compound: values may come before it.
Assays:
5c.c7 TCR = experiment: single molecule tracking of agonist pMHC:TCR dwell times in hybrid live T cell-supported membrane junctions; assay type: binding, mouse; details: 5c.c7 T cells, 37 °C, compared with same-day control
Text: (§1) We probe agonist pMHC:TCR complex dynamics in hybrid live cell—supported membrane junctions([Grakoui et al., 1999]) (Figure 1A). The supported membrane is functionalized with MHC (IE^k) and intercellular adhesion molecule-1 fusion with a blue fluorescent protein (ICAM1-TagBFP), both linked to the membrane via C-terminal poly-His tag binding to Ni-chelating lipids ([Nye and Groves, 2008]). The MHC is loaded with peptide (moth cytochrome c [MCC] agonist or null), which is covalently coupled in a 1:1 stoichiometry (verified by HPLC) to the photostable fluorophores Atto647N or Atto488 using maleimide-thiol chemistry. […]
(§2) Since the slow-moving pMHC can be clearly resolved from the fast moving component, the lifetime of molecules in this bound state is directly observable. […] Unbinding and photobleaching are indistinguishable in fluorescence methods such as this. […]
(§3) TIRF experiments were performed on an inverted microscope (Nikon Eclipse Ti; Technical Instruments, Burlingame, CA) using a custom-built laser launch with 488 nm (Sapphire HP; Coherent Inc., Santa Clara, CA) and 640 nm (Cube; Coherent Inc.) diode lasers, as described previously ([Smith et al., 2011]). Laser powers measured at the sample were 0.8 mW (640 nm) and 0.5 mW (488 nm) for 500 ms exposures and 4.4 mW (640 nm) for 17.5 ms exposures. […]

AND TCR = experiment: as above; assay type: binding, mouse; details: AND T cells, 37 °C, compared with same-day control
Text: as §1, §2, §3

[1] = molecular target: MCC agonist pMHC: MHC class II I-E^k loaded with MCC(C) peptide labelled with Atto647N (not stated | moth) (UniProt P04230); experiment: two-color single molecule fluorescence tracking (TIRF); agonist pMHC (MCC-Atto647N) on a supported lipid bilayer; live T cells expressing ZAP70-EGFP; 1 frame/s, 500 ms integration; pair pMHC and TCR
[2] = molecular target: MCC agonist pMHC: MHC class II I-E^k loaded with MCC(C) peptide labelled with Atto488 (not stated | moth) (UniProt P04230); experiment: single molecule fluorescence tracking (TIRF); pMHC (Atto488 on the peptide) tethered by His tags to a Ni-NTA supported lipid bilayer with ICAM1-TagBFP; live primary T cell blasts added; 500 ms exposure, 1-10 s time lapse; dwell time of the slow-moving pMHC corrected for photobleaching; 37°C, imaging buffer; also at 100 molecules/µm^2 and with Latrunculin A
[3] = molecular target: phosphorylated ITAM domains on the cytoplasmic side of TCR engaged with pMHC (TCR complex, 10 ITAM domains) (mouse (endogenous in primary T cells)); experiment: two-color single molecule fluorescence tracking (TIRF); ZAP70-EGFP intensity integrated over a 315 nm square centred on each pMHC:TCR complex in live T cells; change-point analysis; intensity calibrated with single ZAP70-EGFP molecules of the same cell; dwell times not corrected for photobleaching

Compound: C/C1=C/C(=O)O[C@@H]2C[C@@H](CC[C@H](C)/C=C\C=C\CC1)O[C@@](O)([C@@H]1CSC(=O)N1)C2 [Latrunculin A]
effect of cytoskeleton disruption on agonist pMHC binding kinetics (5c.c7 TCR): no significant effect
effect of cytoskeleton disruption on ⟨τoff⟩ of agonist pMHC (AND TCR): moderately increases

stoichiometry N [1]: 1
mean dwell time 〈τoff〉 [2]: 53.8 s
Compound: AND TCR

ZAP70 molecules (EGFP-tagged and endogenous) per feature (ZAP70 molecules per feature) [3]: 6
molecular binding dwell time [3]: 12 to 107 s
stoichiometry N (ZAP70-EGFP per feature) [3]: 2.9
Compound: enhanced green fluorescent protein fused to CD3 zeta-chain-associated protein of 70 kDa (Zap70-EGFP) (from UniProt P43404 1-618) (enzyme)
